Where a chain is given by its changes, count along the chain named.
Columns and labels:
[1] = target: T1, human MSLN-R3-3 polypeptide (human); assay: ELISA, coated antigen; antibody 0.0001 nM
T1 construct: also called human MSLN-R3-3 protein; hMSLN-R3-3
Experimental: (§1) The plate was sealed with a plastic film and incubated at 4° C. overnight. The next day, the plate was washed twice with PBST, and a blocking buffer [PBS+2% (w/w) BSA] was added for blocking at room temperature for 2 h. The blocking buffer was discarded, and a chimeric antibody or negative control antibody serially diluted from 100 nM was added at 50 μL/well. After incubation at 37° C. for 2 h, the plate was washed 3 times with PBST. […] After incubation at 37° C. for 2 h, the plate was washed 5 times with PBST. A TMB substrate was added at 50 μL/well for incubation at room temperature for 5-10 min, and then a stop solution (1.0 N HCl) was added at 50 μL/well.

[2] = target: T2, human MSLN-R3-his protein (human, UniProt Q13421 487-598); assay: ELISA, coated antigen; antibody 100 nM
T2 construct: also called human MSLN-R3 protein; hMSLN-R3-his; not shown: His tag

[3] = target: T3, human MSLN-R2-his protein (human, UniProt Q13421 391-486); assay: ELISA, coated antigen; antibody 0.1 nM
T3 construct: also called human MSLN-R2 protein; hMSLN-R2-his; not shown: His tag

[4] = target: T2, human MSLN-R3-his protein; assay: ELISA, coated antigen; no antibody (blank, column 'none')
Experimental: as §1

[5] = target: T1, human MSLN-R3-3 polypeptide; assay: ELISA, coated antigen; antibody 0.001 nM
Experimental: as §1

[6] = target: T1, human MSLN-R3-3 polypeptide; assay: ELISA, coated antigen; no antibody (blank, column 'none')
Experimental: as §1

[7] = target: T2, human MSLN-R3-his protein; assay: ELISA, coated antigen; antibody 1 nM
Experimental: as §1

[8] = target: T1, human MSLN-R3-3 polypeptide; assay: ELISA, coated antigen; antibody 100 nM
Experimental: as §1

[9] = target: T3, human MSLN-R2-his protein; assay: ELISA, coated antigen; antibody 10 nM
Experimental: as §1

[10] = target: T3, human MSLN-R2-his protein; assay: ELISA, coated antigen; antibody 0.001 nM
Experimental: as §1

[11] = target: T1, human MSLN-R3-3 polypeptide; assay: ELISA, coated antigen; antibody 10 nM
Experimental: as §1

[12] = target: T3, human MSLN-R2-his protein; assay: ELISA, coated antigen; antibody 1 nM
Experimental: as §1

[13] = target: T2, human MSLN-R3-his protein; assay: ELISA, coated antigen; antibody 10 nM
Experimental: as §1

[14] = target: T1, human MSLN-R3-3 polypeptide; assay: ELISA, coated antigen; antibody 1 nM
Experimental: as §1

[15] = target: T1, human MSLN-R3-3 polypeptide; assay: ELISA, coated antigen; antibody 0.1 nM
Experimental: as §1

[16] = target: T2, human MSLN-R3-his protein; assay: ELISA, coated antigen; antibody 0.0001 nM
Experimental: as §1

[17] = target: T3, human MSLN-R2-his protein; assay: ELISA, coated antigen; antibody 100 nM
Experimental: as §1

[18] = target: T3, human MSLN-R2-his protein; assay: ELISA, coated antigen; no antibody (blank, column 'none')
Experimental: as §1

[19] = target: T3, human MSLN-R2-his protein; assay: ELISA, coated antigen; antibody 0.01 nM
Experimental: as §1

[20] = target: T3, human MSLN-R2-his protein; assay: ELISA, coated antigen; antibody 0.0001 nM
Experimental: as §1

[21] = target: T2, human MSLN-R3-his protein; assay: ELISA, coated antigen; antibody 0.001 nM
Experimental: as §1

[22] = target: T1, human MSLN-R3-3 polypeptide; assay: ELISA, coated antigen; antibody 0.01 nM
Experimental: as §1

[23] = target: T2, human MSLN-R3-his protein; assay: ELISA, coated antigen; antibody 0.1 nM
Experimental: as §1

[24] = target: T2, human MSLN-R3-his protein; assay: ELISA, coated antigen; antibody 0.01 nM
Experimental: as §1

T3 sequence (Q13421 other isoform, or with tags, fused parts or gaps): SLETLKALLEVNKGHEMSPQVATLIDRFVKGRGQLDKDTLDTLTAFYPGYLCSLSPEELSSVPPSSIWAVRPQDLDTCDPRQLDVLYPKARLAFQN
T2 sequence (Q13421 495-606): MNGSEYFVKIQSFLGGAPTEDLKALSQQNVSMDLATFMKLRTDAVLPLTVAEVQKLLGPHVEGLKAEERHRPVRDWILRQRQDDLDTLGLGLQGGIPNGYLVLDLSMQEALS

B1: S009-F3.7.3 (antibody, human IgG1, kappa, V domains shown)
VH: EVNFEESGGGLVQPGGSMKLSCVASGFTFSNYWMNWVRQSPEKGLEWVAQIRLKSDNYATHYAESVKGRFTISRDDFKSSVYLQMNNLRAEDTGIYYCTVGTGGYWGQGTTLTVSS
VL: DIVLTQSPASLAMSLGKRATISCRASESVSIVGTNVIHWFQQKPGQPPKLLIYHASNLETGVPARFSGSGSGTDFTLTIDPVEEDDVAIYHCLQSRKIPWTFGGGTKLEIKR
notes: Human-murine chimeric antibody: murine VH/VL on human IgG1 heavy chain constant region and human kappa constant region
B1 was tested. Which OD450 [1] did it give?
The OD450 was 0.07 OD450.

And the OD450 [2]?
Its OD450 is 2.16 OD450.

What about the OD450 [3] of the same binder?
The OD450 was 0.07 OD450.

What about the OD450 [4] of the same binder?
The OD450 was 0.08 OD450.

And the OD450 [5]?
The OD450 was 0.07 OD450.

What about the OD450 [6] of the same binder?
Its OD450 is 0.08 OD450.

And the OD450 [7]?
Its OD450 is 1.63 OD450.

What about the OD450 [8] of the same binder?
The OD450 was 0.11 OD450.

What about the OD450 [9] of the same binder?
Its OD450 is 0.09 OD450.

And the OD450 [10]?
The OD450 was 0.07 OD450.

What about the OD450 [11] of the same binder?
The OD450 was 0.08 OD450.

And the OD450 [12]?
The OD450 was 0.07 OD450.

And the OD450 [13]?
Its OD450 is 1.74 OD450.

What about the OD450 [14] of the same binder?
Its OD450 is 0.07 OD450.

What about the OD450 [15] of the same binder?
Its OD450 is 0.07 OD450.

And the OD450 [16]?
Its OD450 is 0.07 OD450.

What about the OD450 [17] of the same binder?
The OD450 was 0.12 OD450.

And the OD450 [18]?
Its OD450 is 0.08 OD450.

And the OD450 [19]?
Its OD450 is 0.06 OD450.

And the OD450 [20]?
Its OD450 is 0.07 OD450.

And the OD450 [21]?
The OD450 was 0.11 OD450.

And the OD450 [22]?
Its OD450 is 0.07 OD450.

And the OD450 [23]?
Its OD450 is 1.13 OD450.

What about the OD450 [24] of the same binder?
Its OD450 is 0.43 OD450.

B2: S009-F3.16.1 (antibody, human IgG1, kappa, V domains shown)
VH: B1 VH with N3K, T71S, F77S, T99S
VL: B1 VL with M13L, L15P, V32I, N35D, G72R, H91Y
notes: Human-murine chimeric antibody, human IgG1/kappa constant regions
How did the OD450 [1] turn out when B2 was run?
Its OD450 is 0.07 OD450.

What about the OD450 [2] of the same binder?
The OD450 was 1.92 OD450.

What about the OD450 [3] of the same binder?
The OD450 was 0.18 OD450.

What about the OD450 [4] of the same binder?
Its OD450 is 0.09 OD450.

What about the OD450 [5] of the same binder?
Its OD450 is 0.08 OD450.

And the OD450 [6]?
The OD450 was 0.08 OD450.

And the OD450 [7]?
The OD450 was 1.8 OD450.

What about the OD450 [8] of the same binder?
Its OD450 is 0.11 OD450.

And the OD450 [9]?
Its OD450 is 0.08 OD450.

And the OD450 [10]?
The OD450 was 0.06 OD450.

And the OD450 [11]?
The OD450 was 0.08 OD450.

What about the OD450 [12] of the same binder?
The OD450 was 0.06 OD450.

What about the OD450 [13] of the same binder?
The OD450 was 1.91 OD450.

And the OD450 [14]?
The OD450 was 0.07 OD450.

And the OD450 [15]?
The OD450 was 0.08 OD450.

What about the OD450 [16] of the same binder?
The OD450 was 0.08 OD450.

And the OD450 [17]?
The OD450 was 0.12 OD450.

And the OD450 [18]?
Its OD450 is 0.08 OD450.

And the OD450 [19]?
Its OD450 is 0.06 OD450.

And the OD450 [20]?
The OD450 was 0.06 OD450.

And the OD450 [21]?
Its OD450 is 0.15 OD450.

And the OD450 [22]?
The OD450 was 0.07 OD450.

And the OD450 [23]?
The OD450 was 1.61 OD450.

What about the OD450 [24] of the same binder?
The OD450 was 0.65 OD450.

B3: S009-F3.38.10 (antibody, human IgG1, kappa, V domains shown)
VH: EVQLQQSGPVLVKPGASVKMSCEASGYIFTDYYMNWVKKSHGKSLEWIGVINPKNGVISHNQKFKGKATLTVDKSSNTAYMELSSLTSEDSAVYYCANYGSRFYAMDYWGQGTSVTVSS
VL: DVVMTQTPLSLPVSLGDQASISCRSSQSLIHSDGNTYLQWYLQKSGQSPKLLIYKVSNRFSGVPDRFSGSGSGTDFTLKISRVETEDLGVYFCSQTTHVPFTFGSGTKLEIKR
notes: as for B2
Which results are given for B3?
OD450 [1]: 0.07 OD450; OD450 [2]: 2.05 OD450; OD450 [3]: 0.18 OD450; OD450 [4]: 0.09 OD450; OD450 [5]: 0.08 OD450; OD450 [6]: 0.07 OD450; OD450 [7]: 1.71 OD450; OD450 [8]: 0.32 OD450; OD450 [9]: 0.18 OD450; OD450 [10]: 0.06 OD450; OD450 [11]: 0.1 OD450; OD450 [12]: 0.21 OD450; OD450 [13]: 1.85 OD450; OD450 [14]: 0.08 OD450; OD450 [15]: 0.08 OD450; OD450 [16]: 0.08 OD450; OD450 [17]: 0.13 OD450; OD450 [18]: 0.08 OD450; OD450 [19]: 0.11 OD450; OD450 [20]: 0.07 OD450; OD450 [21]: 0.12 OD450; OD450 [22]: 0.08 OD450; OD450 [23]: 1.47 OD450; OD450 [24]: 0.41 OD450

— patent publication US20250250357A1 (NANJING ZAIMING PHARMACEUTICAL, published 2025)
